Results as given in IntAct's records for PubMed 15637807.

B1: Caspase recruitment domain-containing protein 19 (Homo sapiens), Q96LW7 (parent)
chain: MTDQTYCDRLVQDTPFLTGHGRLSEQQVDRIILQLNRYYPQILTNKEAEKFRNPKASLRVRLCDLLSHLQRSGERDCQEFYRALYIHAQPLHSRLPSRHALRKFHITNHACLVLARGGHPSLPLMAWMSSMTTQVCCSPGLASPLASAPPQRPPSGPEGRVWQAQAVQMLVSVSHFLPLPPSLSHGSFHTAWGILYVHSCPSFSNLIPRGSLHVCVDSNLVPTAAWRS
partner: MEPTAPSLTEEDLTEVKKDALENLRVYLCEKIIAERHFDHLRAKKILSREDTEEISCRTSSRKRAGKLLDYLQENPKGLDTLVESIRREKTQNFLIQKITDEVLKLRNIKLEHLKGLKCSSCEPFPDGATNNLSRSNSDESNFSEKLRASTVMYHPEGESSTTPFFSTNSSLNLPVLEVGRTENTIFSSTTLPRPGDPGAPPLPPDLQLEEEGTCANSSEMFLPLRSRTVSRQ

Variants of: B1
Conditions: with bcl10_human BCL10, O95999

| Variant | effect of a mutation on the interaction |
| --- | --- |
| MTDQTYCDRLVQDTPFLTGHGRLSEQQVDRIILQLNRYYPQILTNKEAEKFRNPKASLRVRLCDALSHLQRSGERDCQEFYRALYIHAQPLHSRLPSRHALRKFHITNHACLVLARGGHPSLPLMAWMSSMTTQVCCSPGLASPLASAPPQRPPSGPEGRVWQAQAVQMLVSVSHFLPLPPSLSHGSFHTAWGILYVHSCPSFSNLIPRGSLHVCVDSNLVPTAAWRS [L65A] | disrupting interaction |
